From patent US20220064329A1 (Novo Nordisk, published 2022) come the findings set out here.

Residue numbers refer to the chain shown, from its start. In names and notes the source's numbering stands.

The term Kd denotes a measure of binding affinity in units of concentration.

T1: recombinant human activated Factor VII (FVIIa) (human, UniProt P08709 61-212; P08709 213-466, ten glutamate residues of the Gla domain may be gamma-carboxylated)
T1 construct: chains tethered by a disulfide bond; also called Factor VIIa; rFVIIa
T1 sequence 1: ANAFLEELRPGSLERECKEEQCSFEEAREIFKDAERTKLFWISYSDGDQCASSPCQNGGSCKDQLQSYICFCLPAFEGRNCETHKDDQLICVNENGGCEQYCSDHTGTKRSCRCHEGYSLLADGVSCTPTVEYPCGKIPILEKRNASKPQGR
T1 sequence 2: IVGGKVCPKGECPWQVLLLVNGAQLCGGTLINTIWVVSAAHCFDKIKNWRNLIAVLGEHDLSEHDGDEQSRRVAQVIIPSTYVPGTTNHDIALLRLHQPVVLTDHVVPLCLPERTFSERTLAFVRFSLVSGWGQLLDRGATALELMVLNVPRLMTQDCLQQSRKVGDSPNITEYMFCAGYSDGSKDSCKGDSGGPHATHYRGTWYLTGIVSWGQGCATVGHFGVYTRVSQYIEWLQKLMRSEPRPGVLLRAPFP

B1: VH SEQ ID NO 570 / VL SEQ ID NO 406 (antibody, IgG4, V domains shown)
VH: QVQLQESGPGLVKPSDTLSLTCAVSGYSISSDSAWSWIRQPPGKGLEWIGYIQYSGSTNYNPSLKSRVTMSRDTSKNQFSLKLSSVTAADTAVYYCARSVNYYGNSFAVGPWGQGTLVTVSS
VL: EIVLTQSPATLSLSPGERATLSCRASQGVSDYLAWYQQKPGQAPRLLIKYASQPATGIPARFSGSGSGTDFTLTISSLEPEDFAVYYCQNGHSFPLTFGAGTKLEIK
notes: humanized 11F2; IgG4 S228P/kappa
B2: VH SEQ ID NO 578 / VL SEQ ID NO 462 (antibody, IgG4, V domains shown)
VH: B1 VH with R72V, A89L
VL: B1 VL with A34H
notes: as for B1
B3: VH SEQ ID NO 570 / VL SEQ ID NO 446 (antibody, IgG4, V domains shown)
VH: B1 VH
VL: B1 VL with A51T, A100Q
notes: as for B1
B4: VH SEQ ID NO 578 / VL SEQ ID NO 350 (antibody, IgG4, V domains shown)
VH: B1 VH with R72V, A89L
VL: B1 VL with V29I, A34H, A51T, I106L
notes: as for B1
B5: VH SEQ ID NO 570 / VL SEQ ID NO 422 (antibody, IgG4, V domains shown)
VH: B1 VH
VL: B1 VL with N90Q, A100Q
notes: as for B1
B6: VH SEQ ID NO 578 / VL SEQ ID NO 430 (antibody, IgG4, V domains shown)
VH: B1 VH with R72V, A89L
VL: B1 VL with A84G, A100Q
notes: as for B1
B7: VH SEQ ID NO 578 / VL SEQ ID NO 358 (antibody, IgG4, V domains shown)
VH: B1 VH with R72V, A89L
VL: B1 VL with V29I, A34H, A51T, A100Q
notes: as for B1
B8: VH SEQ ID NO 586 / VL SEQ ID NO 342 (antibody, IgG4, V domains shown)
VH: B1 VH with R72V, A89L, P111Y
VL: B1 VL with V29I, A34H, A51T, T69R, I106L
notes: as for B1
B9: VH SEQ ID NO 586 / VL SEQ ID NO 438 (antibody, IgG4, V domains shown)
VH: B1 VH with R72V, A89L, P111Y
VL: B1 VL with F83V, A100Q
notes: as for B1
B10: VH SEQ ID NO 570 / VL SEQ ID NO 438 (antibody, IgG4, V domains shown)
VH: B1 VH
VL: B1 VL with F83V, A100Q
notes: as for B1
B11: VH SEQ ID NO 578 / VL SEQ ID NO 502 (antibody, IgG4, V domains shown)
VH: B1 VH with R72V, A89L
VL: B1 VL with A34H, A51T, A100Q
notes: as for B1
B12: VH SEQ ID NO 570 / VL SEQ ID NO 486 (antibody, IgG4, V domains shown)
VH: B1 VH
VL: B1 VL with A34H, A84G, A100Q
notes: as for B1
B13: VH SEQ ID NO 586 / VL SEQ ID NO 406 (antibody, IgG4, V domains shown)
VH: B1 VH with R72V, A89L, P111Y
VL: B1 VL
notes: as for B1
B14: VH SEQ ID NO 570 / VL SEQ ID NO 430 (antibody, IgG4, V domains shown)
VH: B1 VH
VL: B1 VL with A84G, A100Q
notes: as for B1
B15: VH SEQ ID NO 586 / VL SEQ ID NO 326 (antibody, IgG4, V domains shown)
VH: B1 VH with R72V, A89L, P111Y
VL: B1 VL with V29I, A34H, Q42E, A51T, A84G, I106L
notes: as for B1
B16: VH SEQ ID NO 570 / VL SEQ ID NO 478 (antibody, IgG4, V domains shown)
VH: B1 VH
VL: B1 VL with A34H, N90Q, A100Q
notes: as for B1
B17: VH SEQ ID NO 570 / VL SEQ ID NO 462 (antibody, IgG4, V domains shown)
VH: B1 VH
VL: B1 VL with A34H
notes: as for B1
B18: VH SEQ ID NO 586 / VL SEQ ID NO 390 (antibody, IgG4, V domains shown)
VH: B1 VH with R72V, A89L, P111Y
VL: B1 VL with Q42E, A100Q
notes: as for B1
B19: VH SEQ ID NO 586 / VL SEQ ID NO 358 (antibody, IgG4, V domains shown)
VH: B1 VH with R72V, A89L, P111Y
VL: B1 VL with V29I, A34H, A51T, A100Q
notes: as for B1
B20: VH SEQ ID NO 578 / VL SEQ ID NO 334 (antibody, IgG4, V domains shown)
VH: B1 VH with R72V, A89L
VL: B1 VL with V29I, A34H, A100Q
notes: as for B1
B21: VH SEQ ID NO 578 / VL SEQ ID NO 326 (antibody, IgG4, V domains shown)
VH: B1 VH with R72V, A89L
VL: B1 VL with V29I, A34H, Q42E, A51T, A84G, I106L
notes: as for B1
B22: VH SEQ ID NO 586 / VL SEQ ID NO 350 (antibody, IgG4, V domains shown)
VH: B1 VH with R72V, A89L, P111Y
VL: B1 VL with V29I, A34H, A51T, I106L
notes: as for B1
B23: VH SEQ ID NO 570 / VL SEQ ID NO 454 (antibody, IgG4, V domains shown)
VH: B1 VH
VL: B1 VL with A34H, Q42E, A100Q
notes: as for B1
B24: VH SEQ ID NO 578 / VL SEQ ID NO 494 (antibody, IgG4, V domains shown)
VH: B1 VH with R72V, A89L
VL: B1 VL with A34H, F83V, A100Q
notes: as for B1
B25: VH SEQ ID NO 578 / VL SEQ ID NO 478 (antibody, IgG4, V domains shown)
VH: B1 VH with R72V, A89L
VL: B1 VL with A34H, N90Q, A100Q
notes: as for B1
B26: VH SEQ ID NO 570 / VL SEQ ID NO 414 (antibody, IgG4, V domains shown)
VH: B1 VH
VL: B1 VL with A100Q
notes: as for B1
B27: VH SEQ ID NO 570 / VL SEQ ID NO 470 (antibody, IgG4, V domains shown)
VH: B1 VH
VL: B1 VL with A34H, A100Q
notes: as for B1
B28: VH SEQ ID NO 578 / VL SEQ ID NO 454 (antibody, IgG4, V domains shown)
VH: B1 VH with R72V, A89L
VL: B1 VL with A34H, Q42E, A100Q
notes: as for B1
B29: VH SEQ ID NO 578 / VL SEQ ID NO 470 (antibody, IgG4, V domains shown)
VH: B1 VH with R72V, A89L
VL: B1 VL with A34H, A100Q
notes: as for B1
B30: VH SEQ ID NO 586 / VL SEQ ID NO 334 (antibody, IgG4, V domains shown)
VH: B1 VH with R72V, A89L, P111Y
VL: B1 VL with V29I, A34H, A100Q
notes: as for B1
B31: VH SEQ ID NO 570 / VL SEQ ID NO 502 (antibody, IgG4, V domains shown)
VH: B1 VH
VL: B1 VL with A34H, A51T, A100Q
notes: as for B1
B32: VH SEQ ID NO 586 / VL SEQ ID NO 318 (antibody, IgG4, V domains shown)
VH: B1 VH with R72V, A89L, P111Y
VL: B1 VL with V29I, A34H, Q42E, A51T, A100Q
notes: as for B1
B33: VH SEQ ID NO 586 / VL SEQ ID NO 382 (antibody, IgG4, V domains shown)
VH: B1 VH with R72V, A89L, P111Y
VL: B1 VL with V29L, A34H, Q42E, A100Q
notes: as for B1
B34: VH SEQ ID NO 586 / VL SEQ ID NO 366 (antibody, IgG4, V domains shown)
VH: B1 VH with R72V, A89L, P111Y
VL: B1 VL with V29L, Q42E, A100Q
notes: as for B1
B35: VH SEQ ID NO 578 / VL SEQ ID NO 342 (antibody, IgG4, V domains shown)
VH: B1 VH with R72V, A89L
VL: B1 VL with V29I, A34H, A51T, T69R, I106L
notes: as for B1
B36: VH SEQ ID NO 578 / VL SEQ ID NO 486 (antibody, IgG4, V domains shown)
VH: B1 VH with R72V, A89L
VL: B1 VL with A34H, A84G, A100Q
notes: as for B1
B37: VH SEQ ID NO 578 / VL SEQ ID NO 318 (antibody, IgG4, V domains shown)
VH: B1 VH with R72V, A89L
VL: B1 VL with V29I, A34H, Q42E, A51T, A100Q
notes: as for B1
B38: VH SEQ ID NO 586 / VL SEQ ID NO 310 (antibody, IgG4, V domains shown)
VH: B1 VH with R72V, A89L, P111Y
VL: B1 VL with V29I, A100Q
notes: as for B1
B39: VH SEQ ID NO 586 / VL SEQ ID NO 430 (antibody, IgG4, V domains shown)
VH: B1 VH with R72V, A89L, P111Y
VL: B1 VL with A84G, A100Q
notes: as for B1
B40: VH SEQ ID NO 586 / VL SEQ ID NO 414 (antibody, IgG4, V domains shown)
VH: B1 VH with R72V, A89L, P111Y
VL: B1 VL with A100Q
notes: as for B1
B41: VH SEQ ID NO 578 / VL SEQ ID NO 382 (antibody, IgG4, V domains shown)
VH: B1 VH with R72V, A89L
VL: B1 VL with V29L, A34H, Q42E, A100Q
notes: as for B1
B42: VH SEQ ID NO 570 / VL SEQ ID NO 494 (antibody, IgG4, V domains shown)
VH: B1 VH
VL: B1 VL with A34H, F83V, A100Q
notes: as for B1

The target in this assay is T1, recombinant human activated Factor VII …. The assay is described as follows: BLI (Fortebio). For orientation: Biolayer interferometry detects binding as a change in optical thickness at a sensor tip.
In the case of B1, the Kd amounted to 20 nM.
For the molecule B2, the Kd was found to be 27 nM.
Consider B3, for which the Kd worked out at 24 nM.
As to B4, the Kd was found to be 21 nM.
The result for B5 reads 2400 nM; that for B6, 820 nM.
Regarding B7, the Kd is 19 nM.
For the molecule B8, the Kd is 18 nM.
On to B9, for which the Kd stood at 23 nM.
For B10, the Kd is 210 nM.
As for B11, the Kd stood at 24 nM.
The same measure for B12: 0.99 nM; for B13: 19 nM; for B14: 16 nM.
As to B15, the Kd stood at 9.9 nM.
Turning to B16, the Kd came to 1.9 nM.
Turning to B17, the Kd came to 1.1 nM.
On to B18, for which the Kd was found to be 38 nM.
Turning to B19, the Kd came out at 11 nM.
Regarding B20, the Kd was 22 nM.
As to B21, the Kd is 16 nM.
The same measure for B22: 12 nM; for B23: 1.1 nM.
On to B24, for which the Kd came to 28 nM.
Regarding B25, the Kd was determined as 310 nM.
The same measure for B26: 21 nM.
The same measure for B27: 1.1 nM; for B28: 25 nM.
With B29, the Kd was determined as 25 nM.
The result for B30 reads 13 nM.
As for B31, the Kd amounted to 0.92 nM.
As for B32, the Kd was 9.8 nM.
For B33, the dissociation constant Kd came to 17 nM.
Regarding B34, the Kd worked out at 21 nM.
On to B35, for which the Kd was 43 nM.
As for B36, the dissociation constant Kd was found to be 23 nM.
Regarding B37, the Kd was 17 nM.
As for B38, the Kd amounted to 1500 nM.
The result for B39 reads 13 nM.
The result for B40 reads 25 nM; that for B41, 30 nM; that for B42, 1.1 nM.
